Source: patent US7892567

Biological target: T1, transcription factor RFX-5, P48382
T1 chain: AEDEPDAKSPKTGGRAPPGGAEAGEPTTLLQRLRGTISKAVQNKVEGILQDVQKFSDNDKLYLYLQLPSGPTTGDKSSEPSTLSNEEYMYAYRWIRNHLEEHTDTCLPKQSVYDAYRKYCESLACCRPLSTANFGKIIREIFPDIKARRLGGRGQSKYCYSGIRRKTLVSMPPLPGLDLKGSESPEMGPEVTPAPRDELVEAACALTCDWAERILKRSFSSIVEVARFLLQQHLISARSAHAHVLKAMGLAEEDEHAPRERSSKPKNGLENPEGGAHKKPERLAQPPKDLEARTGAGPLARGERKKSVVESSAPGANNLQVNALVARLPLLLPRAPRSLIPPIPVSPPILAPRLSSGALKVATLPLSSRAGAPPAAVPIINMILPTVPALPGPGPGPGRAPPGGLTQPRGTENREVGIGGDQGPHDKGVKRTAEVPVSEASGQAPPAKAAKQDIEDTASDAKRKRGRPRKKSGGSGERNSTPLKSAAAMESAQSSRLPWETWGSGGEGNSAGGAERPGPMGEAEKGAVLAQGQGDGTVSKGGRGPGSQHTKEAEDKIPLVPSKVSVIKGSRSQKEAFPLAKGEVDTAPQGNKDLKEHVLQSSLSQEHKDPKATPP

B1: recombinant chlamydial protease-like activity factor (CPAF) from the C. trachomatis L2 genome, fusion protein with a 6-His tag at the N-terminus (protein)
chain: MGFWRTSIMKMNRIWLLLLTFSSAIHSPVRGESLVCKNALQDLSFLEHLLQVKYAPKTWKEQYLGWDLVQSSVSAQQKLRTQENPSTSFCQQVLADFIGGLNDFHAGVTFFAIESAYLPYTVQKSSDGRFYFVDIMTFSSEIRVGDELLEVDGAPVQDVLATLYGSNHKGTAAEESAALRTLFSRMASLGHKVPSGRTTLKIRRPFGTTREVRVKWRYVPEGVGDLATIAPSIRAPQLQKSMRSFFPKKDDAFHRSSSLFYSPMVPHFWAELRNHYATSGLKSGYNIGSTDGFLPVIGPVIWESEGLFRAYISSVTDGDGKSHKVGFLRIPTYSWQDMEDFDPSGPPPWEEFAKIIQVFSSNTEALIIDQTNNPGGSVLYLYALLSMLTDRPLELPKHRMILTQDEVVDALDWLTLLENVDTNVESRLALGDNMEGYTVDLQVAEYLKSFGRQVLNCWSKGDIELSTPIPLFGFEKIHPHPRVQYSKPICVLINEQDFSCADFFPVVLKDNDRALIVGTRTAGAGGFVFNVQFPNRTGIKTCSLTGSLAVREHGAFIENIGVEPHIDLPFTANDIRYKGYSEYLDKVKKLVCQLINNDGTIILAEDGSF
  degradation of the transcription factor RFX-5: the biological activity of recombinant CPAF was confirmed by the ability to degrade the transcription factor, RFX-5
